Laboratory results from PMC8464072, “YB-1 unwinds mRNA secondary structures in vitro and negatively regulates stress granule assembly in HeLa cells”.

How the values were obtained:
YB-1C [1] = molecular target: T1, YB-1C (UniProt P67809 1-180); test: NMR (1H-15N HSQC); multiple peaks; NMR: 25 mM phosphate pH 6.8, 25 mM KCl, 298 K, 50-100 uM protein; EMSA: 20 mM HEPES pH 7.5, 60 mM KCl, room temperature; melting: 10 mM HEPES-KOH pH 7.6, 130 mM KCl, 30 C; details: protein: recombinant; tags: His tag (Ni-NTA); hairpin, 10 bp stem, 4 nt loop
T1 sequence (P67809 1-180): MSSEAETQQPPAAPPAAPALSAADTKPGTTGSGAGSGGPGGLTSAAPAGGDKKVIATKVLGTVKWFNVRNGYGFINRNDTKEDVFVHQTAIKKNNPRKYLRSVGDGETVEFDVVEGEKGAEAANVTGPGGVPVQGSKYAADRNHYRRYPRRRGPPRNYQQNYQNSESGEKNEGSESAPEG

YB-1-RK [2] = molecular target: T2, YB-1-RK (UniProt P67809 1-180, R97A;K98A); test: NMR (1H-15N HSQC); no multiple peaks; stem not destabilized; NMR: 25 mM phosphate pH 6.8, 25 mM KCl, 298 K, 50-100 uM protein; EMSA: 20 mM HEPES pH 7.5, 60 mM KCl, room temperature; melting: 10 mM HEPES-KOH pH 7.6, 130 mM KCl, 30 C; details: protein: recombinant; tags: His tag (Ni-NTA); hairpin, 10 bp stem, 4 nt loop
T2 sequence (P67809 1-180 R97A/K98A): as the sequence (P67809 1-180) above, with R97A, K98A counted along it

YB-1-KY [3] = molecular target: T3, YB-1-KY (UniProt P67809 1-180, K137A;Y138A); test: as above; details: protein: recombinant; tags: His tag (Ni-NTA); hairpin, 10 bp stem, 4 nt loop
T3 sequence (P67809 1-180 K137A/Y138A): as the sequence (P67809 1-180) above, with K137A, Y138A counted along it

YB-1C [4] = molecular target: T1, YB-1C; test: NMR (1H-15N HSQC); single peaks; NMR: 25 mM phosphate pH 6.8, 25 mM KCl, 298 K, 50-100 uM protein; EMSA: 20 mM HEPES pH 7.5, 60 mM KCl, room temperature; melting: 10 mM HEPES-KOH pH 7.6, 130 mM KCl, 30 C; details: protein: recombinant; tags: His tag (Ni-NTA)
YB-1-RK [5] = molecular target: T2, YB-1-RK; test: NMR (1H-15N HSQC); CSD binding unaffected vs wild type; NMR: 25 mM phosphate pH 6.8, 25 mM KCl, 298 K, 50-100 uM protein; EMSA: 20 mM HEPES pH 7.5, 60 mM KCl, room temperature; melting: 10 mM HEPES-KOH pH 7.6, 130 mM KCl, 30 C; details: protein: recombinant; tags: His tag (Ni-NTA)
YB-1-KY [6] = molecular target: T3, YB-1-KY; test: as above; details: protein: recombinant; tags: His tag (Ni-NTA)
YB-1C [7] = molecular target: T1, YB-1C; test: NMR (1H imino and 1H-15N HSQC); multiple peaks at 1:1, lost at 0.25:1; NMR: 25 mM phosphate pH 6.8, 25 mM KCl, 298 K, 50-100 uM protein; EMSA: 20 mM HEPES pH 7.5, 60 mM KCl, room temperature; melting: 10 mM HEPES-KOH pH 7.6, 130 mM KCl, 30 C; details: protein: recombinant; tags: His tag (Ni-NTA); hairpin, 10 bp stem, 4 nt loop
FUS RRM = FUS RRM (UniProt P35637 275-385); test: NMR; CSPs (data not shown); no stem opening at 1.75:1; NMR: 25 mM phosphate pH 6.8, 25 mM KCl, 298 K, 50-100 uM protein; EMSA: 20 mM HEPES pH 7.5, 60 mM KCl, room temperature; melting: 10 mM HEPES-KOH pH 7.6, 130 mM KCl, 30 C; details: protein: recombinant; hairpin, 10 bp stem, 4 nt loop
Chain of FUS RRM (P35637 275-385): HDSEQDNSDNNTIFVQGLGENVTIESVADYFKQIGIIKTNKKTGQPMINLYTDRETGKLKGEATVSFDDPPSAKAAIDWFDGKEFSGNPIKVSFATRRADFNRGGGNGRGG

YB-1C [8] = molecular target: T1, YB-1C; test: fluorescence melting; 130 mM KCl, 30 C; 10:1 protein:DNA; NMR: 25 mM phosphate pH 6.8, 25 mM KCl, 298 K, 50-100 uM protein; EMSA: 20 mM HEPES pH 7.5, 60 mM KCl, room temperature; melting: 10 mM HEPES-KOH pH 7.6, 130 mM KCl, 30 C; details: protein: recombinant; tags: His tag (Ni-NTA); label: 5' FAM, 3' BHQ1; hairpin
YB-1 (full length) = YB-1 (full length) (UniProt P67809 1-324); test: fluorescence melting; 130 mM KCl, 30 C; 10:1 protein:DNA; opening of hairpin; NMR: 25 mM phosphate pH 6.8, 25 mM KCl, 298 K, 50-100 uM protein; EMSA: 20 mM HEPES pH 7.5, 60 mM KCl, room temperature; melting: 10 mM HEPES-KOH pH 7.6, 130 mM KCl, 30 C; details: protein: recombinant, tags: His tag (Ni-NTA), label: 5' FAM, 3' BHQ1
Chain of YB-1 (full length) (P67809 whole entry): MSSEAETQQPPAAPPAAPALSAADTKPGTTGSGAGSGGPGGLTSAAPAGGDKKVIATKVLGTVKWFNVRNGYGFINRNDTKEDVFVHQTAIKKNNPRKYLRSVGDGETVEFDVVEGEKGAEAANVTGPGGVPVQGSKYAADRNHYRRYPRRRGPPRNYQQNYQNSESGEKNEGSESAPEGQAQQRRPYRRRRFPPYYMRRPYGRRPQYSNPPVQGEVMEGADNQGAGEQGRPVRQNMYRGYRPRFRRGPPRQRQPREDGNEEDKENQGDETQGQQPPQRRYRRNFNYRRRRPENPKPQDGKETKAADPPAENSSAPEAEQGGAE

B1: ACU-4G RNA stem/loop (structured_RNA)
RNA: ACAGACAGAACCCCUUCUGUCUGU
Q: Does B1 bind (YB-1C [1])?
A: Result: binds

Q: Does B1 bind (YB-1-RK [2])?
A: Result: binds

Q: Does B1 bind (YB-1-KY [3])?
A: Result: binds

B2: C10 (ssDNA)
DNA: CCCCCCCCCC
Q: Does B2 bind (YB-1C [4])?
A: Result: binds

Q: Does B2 bind (YB-1-RK [5])?
A: Result: binds

Q: Does B2 bind (YB-1-KY [6])?
A: Result: binds

B3: ACT-4G DNA stem/loop (structured_DNA)
DNA: ACAGACAGAACCCCTTCTGTCTGT
Q: Does B3 bind (YB-1C [7])?
A: Result: binds

Q: Does B3 bind (FUS RRM)?
A: Result: binds

B4: A10 (ssDNA)
DNA: AAAAAAAAAA
Q: Does B4 bind (YB-1C [4])?
A: Result: binds

B5: DNA1 hairpin (structured_DNA)
DNA: GGGGGGGGTTAACCCCCCCC
Q: What does the source list for B5?
A: binding result (YB-1C [8]): binds; binding result (YB-1 (full length)): binds

B6: T10 (ssDNA)
DNA: TTTTTTTTTT
Q: Does B6 bind (YB-1C [4])?
A: Result: binds
